{"source": "the supplement of paper PMC10567573", "parents": {"B1": {"name": "RAB11A (parent)", "chain": "AVPTDEARAFAEKNGLSFIETSAL"}}}
{"variants_of": "B1", "assay": "protein stability index of a GFP-peptide fusion (GPS, HEK-293T) (PSI 1-6); higher = more stable", "conditions": "c terminus: a fixed tail appended"}
{"variant": "AVETDEARAFAEKNGLSFIETSAL", "note": "[P3E]", "protein stability index": 2.47}
{"variant": "AVTTDEARAFAEKNGLSFIETSAL", "note": "[P3T]", "protein stability index": 2.81}
{"variant": "AVHTDEARAFAEKNGLSFIETSAL", "note": "[P3H]", "protein stability index": 2.54}
{"variant": "AVVTDEARAFAEKNGLSFIETSAL", "note": "[P3V]", "protein stability index": 2.14}
{"variant": "AVPTDEARAFAEKPGLSFIETSAL", "note": "[N14P]", "protein stability index": 2.44}
{"variant": "AVPTDEARAFAEKAGLSFIETSAL", "note": "[N14A]", "protein stability index": 1.96}
{"variant": "AVPTDEARAFAEKKGLSFIETSAL", "note": "[N14K]", "protein stability index": 2.46}
{"variant": "AVPTDEARAFAEKNKLSFIETSAL", "note": "[G15K]", "protein stability index": 2.92}
{"variant": "AVPTDEARAFAEKNYLSFIETSAL", "note": "[G15Y]", "protein stability index": 1.74}
{"variant": "AVPTDEARAFAEKNILSFIETSAL", "note": "[G15I]", "protein stability index": 2.8}
{"variant": "AVPTDEARAFAEKNRLSFIETSAL", "note": "[G15R]", "protein stability index": 2.52}
{"variant": "AVPTDEAAAFAEKNGLSFIETSAL", "note": "[R8A]", "protein stability index": 2.64}
{"variant": "AVPTDEANAFAEKNGLSFIETSAL", "note": "[R8N]", "protein stability index": 2.64}
{"variant": "AVPTDEACAFAEKNGLSFIETSAL", "note": "[R8C]", "protein stability index": 2.32}
{"variant": "AVPTDEAIAFAEKNGLSFIETSAL", "note": "[R8I]", "protein stability index": 2.59}
{"variant": "AVPTDEAHAFAEKNGLSFIETSAL", "note": "[R8H]", "protein stability index": 2.7}
{"variant": "AVPTDEAFAFAEKNGLSFIETSAL", "note": "[R8F]", "protein stability index": 1.97}
{"variant": "AVPTDEAYAFAEKNGLSFIETSAL", "note": "[R8Y]", "protein stability index": 1.99}
{"variant": "AVPTDEAMAFAEKNGLSFIETSAL", "note": "[R8M]", "protein stability index": 2.4}
{"variant": "AGPTDEARAFAEKNGLSFIETSAL", "note": "[V2G]", "protein stability index": 2.73}
{"variant": "AVPTDEARAFWEKNGLSFIETSAL", "note": "[A11W]", "protein stability index": 1.9}
{"variant": "AVPTDEARAFSEKNGLSFIETSAL", "note": "[A11S]", "protein stability index": 2.63}
{"variant": "AVPTDEARAFLEKNGLSFIETSAL", "note": "[A11L]", "protein stability index": 2.32}
{"variant": "AVPTDEARAFYEKNGLSFIETSAL", "note": "[A11Y]", "protein stability index": 2.2}
{"variant": "AVPTDEARAFMEKNGLSFIETSAL", "note": "[A11M]", "protein stability index": 2.24}
{"variant": "AVPTDEARAFTEKNGLSFIETSAL", "note": "[A11T]", "protein stability index": 2.31}
{"variant": "AVPTDEARCFAEKNGLSFIETSAL", "note": "[A9C]", "protein stability index": 1.82}
{"variant": "AVPTDEARFFAEKNGLSFIETSAL", "note": "[A9F]", "protein stability index": 2.1}
{"variant": "AVPTDEARNFAEKNGLSFIETSAL", "note": "[A9N]", "protein stability index": 2.46}
{"variant": "AVPTDEARVFAEKNGLSFIETSAL", "note": "[A9V]", "protein stability index": 2.45}
{"variant": "AVPTDEARAFAEKNGLSFIEESAL", "note": "[T21E]", "protein stability index": 4.34}
{"variant": "AVPTDEARAFAEKNGLSFIEPSAL", "note": "[T21P]", "protein stability index": 2.15}
{"variant": "AVPTDEARAFAEKNGLSFIENSAL", "note": "[T21N]", "protein stability index": 2.47}
{"variant": "AVPTDEARAFAEKNGLSFIEASAL", "note": "[T21A]", "protein stability index": 2.49}
{"variant": "AVPTDEARAFAEKNGLSFIEWSAL", "note": "[T21W]", "protein stability index": 2.39}
{"variant": "AVPTDEARAFAEKNGLSFIEISAL", "note": "[T21I]", "protein stability index": 1.8}
{"variant": "AVPTDEARAFAEKNGLSFIEQSAL", "note": "[T21Q]", "protein stability index": 3.75}
{"variant": "AVPTDEARAFAEKNGLSFWETSAL", "note": "[I19W]", "protein stability index": 3.92}
{"variant": "AVPTDEARAFAEKNGLSFGETSAL", "note": "[I19G]", "protein stability index": 4.5}
{"variant": "AVPTDEARAFAEKNGLSFEETSAL", "note": "[I19E]", "protein stability index": 4.24}
{"variant": "AVPTDEARAFAEKNGLSFMETSAL", "note": "[I19M]", "protein stability index": 3.91}
{"variant": "AVPTDEARAFAEKNGLSFQETSAL", "note": "[I19Q]", "protein stability index": 3.6}
{"variant": "AVPTDEARAFAEKNGLSFDETSAL", "note": "[I19D]", "protein stability index": 4.56}
{"variant": "AVPTDEARAFAEKNGLSFKETSAL", "note": "[I19K]", "protein stability index": 4.12}
{"variant": "AVPTDEYRAFAEKNGLSFIETSAL", "note": "[A7Y]", "protein stability index": 2.45}
{"variant": "AVPTDEFRAFAEKNGLSFIETSAL", "note": "[A7F]", "protein stability index": 2.48}
{"variant": "AVPTDEQRAFAEKNGLSFIETSAL", "note": "[A7Q]", "protein stability index": 2.87}
{"variant": "AVPTDEWRAFAEKNGLSFIETSAL", "note": "[A7W]", "protein stability index": 2.09}
{"variant": "AVPIDEARAFAEKNGLSFIETSAL", "note": "[T4I]", "protein stability index": 2.28}
{"variant": "AVPRDEARAFAEKNGLSFIETSAL", "note": "[T4R]", "protein stability index": 2.02}
{"variant": "AVPWDEARAFAEKNGLSFIETSAL", "note": "[T4W]", "protein stability index": 1.93}
{"variant": "AVPMDEARAFAEKNGLSFIETSAL", "note": "[T4M]", "protein stability index": 2.12}
{"variant": "AVPKDEARAFAEKNGLSFIETSAL", "note": "[T4K]", "protein stability index": 2.39}
{"variant": "RVPTDEARAFAEKNGLSFIETSAL", "note": "[A1R]", "protein stability index": 2.46}
{"variant": "QVPTDEARAFAEKNGLSFIETSAL", "note": "[A1Q]", "protein stability index": 2.43}
{"variant": "AVPTDEARAFAEKNGLSFIETSKL", "note": "[A23K]", "protein stability index": 2.42}
{"variant": "AVPTDEARAFAEKNGLSFIETSML", "note": "[A23M]", "protein stability index": 1.81}
{"variant": "AVPTDEARAFAEKNGLSFIETSCL", "note": "[A23C]", "protein stability index": 2.08}
{"variant": "AVPTDEARAFAEKNGLSFIETSVL", "note": "[A23V]", "protein stability index": 2.12}
{"variant": "AVPTDEARAFAEKNGLSFIETSLL", "note": "[A23L]", "protein stability index": 1.9}
{"variant": "AVPTDEARAFAEKNGLSFIETSDL", "note": "[A23D]", "protein stability index": 4.18}
{"variant": "AVPTDEARAFAEKNGLSLIETSAL", "note": "[F18L]", "protein stability index": 4.14}
{"variant": "AVPTDEARAFAEKNGLSTIETSAL", "note": "[F18T]", "protein stability index": 4.32}
{"variant": "AVPTDEARAFAEKNGLSFIETYAL", "note": "[S22Y]", "protein stability index": 2.08}
{"variant": "AVPTDEARAFAEKNGLSFIETWAL", "note": "[S22W]", "protein stability index": 1.6}
{"variant": "AVPTDEARAFAEKNGLSFIETLAL", "note": "[S22L]", "protein stability index": 2.5}
{"variant": "AVPTDEARAFAEKNGLSFIETRAL", "note": "[S22R]", "protein stability index": 2.25}
{"variant": "AVPTDEARAFAEKNGLSFIETCAL", "note": "[S22C]", "protein stability index": 2.54}
{"variant": "AVPTDEARAQAEKNGLSFIETSAL", "note": "[F10Q]", "protein stability index": 3.08}
{"variant": "AVPTDEARAIAEKNGLSFIETSAL", "note": "[F10I]", "protein stability index": 2.44}
{"variant": "AVPTDEARAYAEKNGLSFIETSAL", "note": "[F10Y]", "protein stability index": 2.71}
{"variant": "AVPTDEARAFAEKNGLSFIDTSAL", "note": "[E20D]", "protein stability index": 2.08}
{"variant": "AVPTDEARAFAEKNGLSFIKTSAL", "note": "[E20K]", "protein stability index": 2.8}
{"variant": "AVPTDEARAFAEKNGLLFIETSAL", "note": "[S17L]", "protein stability index": 2.7}
{"variant": "AVPTDEARAFAEKNGLCFIETSAL", "note": "[S17C]", "protein stability index": 2.52}
{"variant": "AVPTDEARAFAEKNGLQFIETSAL", "note": "[S17Q]", "protein stability index": 4.02}
{"variant": "AVPTDEARAFAEKNGLIFIETSAL", "note": "[S17I]", "protein stability index": 2.73}
{"variant": "AVPTDEARAFAENNGLSFIETSAL", "note": "[K13N]", "protein stability index": 2.43}
{"variant": "AVPTDEARAFAEINGLSFIETSAL", "note": "[K13I]", "protein stability index": 2.09}
{"variant": "AVPTDEARAFAELNGLSFIETSAL", "note": "[K13L]", "protein stability index": 2.17}
{"variant": "AVPTDEARAFAEKNGRSFIETSAL", "note": "[L16R]", "protein stability index": 3.8}
{"variant": "AVPTDEARAFAEKNGHSFIETSAL", "note": "[L16H]", "protein stability index": 4.3}
{"variant": "AVPTDEARAFAEKNGESFIETSAL", "note": "[L16E]", "protein stability index": 4.73}
{"variant": "AVPTDEARAFAEKNGPSFIETSAL", "note": "[L16P]", "protein stability index": 4.08}
{"variant": "AVPTDEARAFAEKNGMSFIETSAL", "note": "[L16M]", "protein stability index": 3.73}
{"variant": "AVPTDEARAFAEKNGYSFIETSAL", "note": "[L16Y]", "protein stability index": 3.14}
{"variant": "AVPTDEARAFAQKNGLSFIETSAL", "note": "[E12Q]", "protein stability index": 1.77}
{"variant": "AVPTDEARAFAEKNGLSFIETSAK", "note": "[L24K]", "protein stability index": 3.53}
{"variant": "AVPTDEARAFAEKNGLSFIETSAM", "note": "[L24M]", "protein stability index": 3.08}
{"variant": "AVPTDEARAFAEKNGLSFIETSAE", "note": "[L24E]", "protein stability index": 5.03}
{"variant": "AVPTDEARAFAEKNGLSFIETSAA", "note": "[L24A]", "protein stability index": 4}
{"variant": "AVPTWEARAFAEKNGLSFIETSAL", "note": "[D5W]", "protein stability index": 1.49}
{"variant": "AVPTFEARAFAEKNGLSFIETSAL", "note": "[D5F]", "protein stability index": 1.92}
{"variant": "AVPTREARAFAEKNGLSFIETSAL", "note": "[D5R]", "protein stability index": 1.99}
